The text below walks through data of paper PMC9674292.

The target of one experiment is EGFP-VopF (V. cholerae). Description: stepwise photobleaching of single-molecule speckles (TIRF, live cells); XTC cells with very low levels of EGFP-VopF or EGFP-VopL; speckles arrested with 10 nM latrunculin A; continuous 488-nm illumination; distribution of bleaching steps compared with a binomial model (probability of EGFP being fluorescent 0.75).
Experiment [1] deals with EGFP-VopL (V. parahaemolyticus). The experiment is described as above.

In the case of EGFP-VopF (natural protein), the stoichiometry N (in general, a count of units in the complex or per binding partner) with EGFP-VopF (V. cholerae) stood at 2.
For the substance EGFP-VopL (natural protein), in experiment [1], the stoichiometry N was determined as 2.
